From patent publication US20150344570A1 (published 2015)

T1: FcγRIIa R (human, UniProt P12318 34-217)
T1 construct: extracellular domain; also called FcgRIIa R type; 2aR
T1 sequence (looked up): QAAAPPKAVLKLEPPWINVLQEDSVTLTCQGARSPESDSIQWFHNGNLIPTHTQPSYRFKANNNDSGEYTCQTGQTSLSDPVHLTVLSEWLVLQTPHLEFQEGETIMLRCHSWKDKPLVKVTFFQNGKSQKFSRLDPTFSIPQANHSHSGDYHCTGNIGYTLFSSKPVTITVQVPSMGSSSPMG

B1: GpH7-B3 variant G237_09D/GpL16-k0 (antibody, human IgG1, kappa)
heavy: not shown
light: DIVMTQSPLSLPVTPGEPASISCQASESLVHSNRNTYLHWYLQKPGQSPQLLIYKVSNRFSGVPDRFSGSGSGTDFTLKISRVEAEDVGVYYCSQNTHVPPTFGQGTKVEIERTVAAPSVFIFPPSDEQLKSGTASVVCLLNNFYPREAKVQWKVDNALQSGNSQESVTEQDSKDSTYSLSSTLTLSKADYEKHKVYACEVTHQGLSSPVTKSFNRGEC
notes: also called Ho Ab G237_09D
B2: GpH7-B3 variant L235_20W/GpL16-k0 (antibody, human IgG1, kappa)
heavy: not shown
light: B1 light
notes: also called Ho Ab L235_20W
B3: GpH7-B3 variant L235_15Y/GpL16-k0 (antibody, human IgG1, kappa)
heavy: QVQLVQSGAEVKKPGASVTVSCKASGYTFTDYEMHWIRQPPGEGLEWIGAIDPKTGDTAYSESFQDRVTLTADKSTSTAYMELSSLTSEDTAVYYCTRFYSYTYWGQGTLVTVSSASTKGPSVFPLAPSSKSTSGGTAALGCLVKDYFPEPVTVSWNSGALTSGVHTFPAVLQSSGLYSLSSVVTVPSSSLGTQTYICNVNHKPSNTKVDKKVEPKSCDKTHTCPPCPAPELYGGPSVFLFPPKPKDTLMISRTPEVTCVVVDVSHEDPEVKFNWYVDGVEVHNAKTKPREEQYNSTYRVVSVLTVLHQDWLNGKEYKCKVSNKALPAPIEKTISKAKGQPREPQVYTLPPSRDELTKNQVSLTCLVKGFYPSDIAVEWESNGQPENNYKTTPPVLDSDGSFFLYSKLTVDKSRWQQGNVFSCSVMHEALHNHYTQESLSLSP
light: B1 light
notes: also called Ho Ab L235_15Y
B4: GpH7-B3 variant K326_07I/GpL16-k0 (antibody, human IgG1, kappa)
heavy: not shown
light: B1 light
notes: also called Ho Ab K326_07I
B5: GpH7-B3 variant N325_09D/GpL16-k0 (antibody, human IgG1, kappa)
heavy: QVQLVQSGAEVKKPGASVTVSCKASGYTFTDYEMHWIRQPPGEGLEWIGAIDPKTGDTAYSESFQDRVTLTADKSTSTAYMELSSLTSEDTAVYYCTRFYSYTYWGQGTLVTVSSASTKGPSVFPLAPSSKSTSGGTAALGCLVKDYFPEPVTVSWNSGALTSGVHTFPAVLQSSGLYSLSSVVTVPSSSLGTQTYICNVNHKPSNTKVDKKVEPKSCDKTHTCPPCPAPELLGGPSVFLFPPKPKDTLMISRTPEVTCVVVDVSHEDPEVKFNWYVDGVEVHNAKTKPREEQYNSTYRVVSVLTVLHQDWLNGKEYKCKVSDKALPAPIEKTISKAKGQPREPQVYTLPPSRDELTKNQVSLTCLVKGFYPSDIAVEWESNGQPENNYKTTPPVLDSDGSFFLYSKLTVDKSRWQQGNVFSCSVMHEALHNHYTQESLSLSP
light: B1 light
notes: also called Ho Ab N325_09D
B6: GpH7-B3 variant K326_08L/GpL16-k0 (antibody, human IgG1, kappa)
heavy: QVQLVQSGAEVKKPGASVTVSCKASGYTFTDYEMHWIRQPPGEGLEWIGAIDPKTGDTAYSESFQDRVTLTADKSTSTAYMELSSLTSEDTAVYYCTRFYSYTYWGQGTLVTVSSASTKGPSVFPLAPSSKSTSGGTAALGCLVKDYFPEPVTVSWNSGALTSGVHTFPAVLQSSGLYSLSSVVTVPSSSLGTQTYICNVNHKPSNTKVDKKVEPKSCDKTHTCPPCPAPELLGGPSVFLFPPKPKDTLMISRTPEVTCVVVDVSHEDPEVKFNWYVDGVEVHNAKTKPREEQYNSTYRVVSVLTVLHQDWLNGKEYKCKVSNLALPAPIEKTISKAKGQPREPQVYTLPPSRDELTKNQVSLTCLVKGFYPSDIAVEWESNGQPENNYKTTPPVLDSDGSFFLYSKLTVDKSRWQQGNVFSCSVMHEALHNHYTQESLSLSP
light: B1 light
notes: also called Ho Ab K326_08L
B7: GpH7-B3 variant L328_02A/GpL16-k0 (antibody, human IgG1, kappa)
heavy: not shown
light: B1 light
notes: also called Ho Ab L328_02A
B8: GpH7-B3 variant N325_08L/GpL16-k0 (antibody, human IgG1, kappa)
heavy: not shown
light: B1 light
notes: also called Ho Ab N325_08L
B9: GpH7-B3 variant H268_15Y/GpL16-k0 (antibody, human IgG1, kappa)
heavy: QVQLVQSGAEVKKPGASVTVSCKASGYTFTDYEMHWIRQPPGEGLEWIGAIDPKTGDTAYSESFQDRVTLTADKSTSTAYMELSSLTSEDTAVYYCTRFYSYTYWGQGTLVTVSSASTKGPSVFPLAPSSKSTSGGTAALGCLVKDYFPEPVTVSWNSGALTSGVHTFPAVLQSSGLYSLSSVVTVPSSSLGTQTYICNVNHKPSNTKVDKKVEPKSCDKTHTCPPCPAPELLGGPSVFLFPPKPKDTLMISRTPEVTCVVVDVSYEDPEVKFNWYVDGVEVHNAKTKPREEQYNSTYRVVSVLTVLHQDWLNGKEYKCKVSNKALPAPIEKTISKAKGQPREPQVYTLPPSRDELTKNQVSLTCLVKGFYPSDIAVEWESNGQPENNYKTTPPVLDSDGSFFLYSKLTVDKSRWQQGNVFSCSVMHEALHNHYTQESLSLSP
light: B1 light
notes: also called Ho Ab H268_15Y
B10: GpH7-B3 variant N325_07I/GpL16-k0 (antibody, human IgG1, kappa)
heavy: not shown
light: B1 light
notes: also called Ho Ab N325_07I
B11: GpH7-B3 variant K326_18N/GpL16-k0 (antibody, human IgG1, kappa)
heavy: not shown
light: B1 light
notes: also called Ho Ab K326_18N
B12: GpH7-B3 variant K334_05P/GpL16-k0 (antibody, human IgG1, kappa)
heavy: not shown
light: B1 light
notes: also called Ho Ab K334_05P
B13: GpH7-B3 variant K326_12R/GpL16-k0 (antibody, human IgG1, kappa)
heavy: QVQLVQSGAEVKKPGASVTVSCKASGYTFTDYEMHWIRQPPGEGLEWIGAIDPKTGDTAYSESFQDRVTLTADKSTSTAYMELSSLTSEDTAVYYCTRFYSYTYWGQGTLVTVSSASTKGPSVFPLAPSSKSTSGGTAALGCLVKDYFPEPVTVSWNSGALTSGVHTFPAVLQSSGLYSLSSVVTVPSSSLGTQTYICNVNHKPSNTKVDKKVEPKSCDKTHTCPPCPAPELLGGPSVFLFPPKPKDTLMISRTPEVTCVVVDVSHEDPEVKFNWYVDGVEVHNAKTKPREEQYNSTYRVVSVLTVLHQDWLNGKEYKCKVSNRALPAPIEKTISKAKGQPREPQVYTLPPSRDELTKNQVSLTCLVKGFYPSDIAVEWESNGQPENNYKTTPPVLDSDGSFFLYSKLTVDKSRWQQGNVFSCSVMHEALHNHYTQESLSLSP
light: B1 light
notes: also called Ho Ab K326_12R
B14: GpH7-B3 variant K334_19Q/GpL16-k0 (antibody, human IgG1, kappa)
heavy: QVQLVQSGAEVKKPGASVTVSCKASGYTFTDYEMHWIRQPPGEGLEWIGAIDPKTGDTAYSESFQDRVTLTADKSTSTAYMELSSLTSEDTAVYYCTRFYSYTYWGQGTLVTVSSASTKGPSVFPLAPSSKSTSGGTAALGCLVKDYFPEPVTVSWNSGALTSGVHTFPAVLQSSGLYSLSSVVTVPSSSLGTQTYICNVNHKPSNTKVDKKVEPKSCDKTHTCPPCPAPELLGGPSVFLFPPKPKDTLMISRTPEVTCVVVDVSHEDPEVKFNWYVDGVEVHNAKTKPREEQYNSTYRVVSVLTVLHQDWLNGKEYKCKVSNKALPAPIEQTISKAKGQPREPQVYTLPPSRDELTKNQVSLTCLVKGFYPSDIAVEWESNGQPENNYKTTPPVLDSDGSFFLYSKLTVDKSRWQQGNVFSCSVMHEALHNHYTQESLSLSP
light: B1 light
notes: also called Ho Ab K334_19Q
B15: GpH7-B3 variant I332_14T/GpL16-k0 (antibody, human IgG1, kappa)
heavy: not shown
light: B1 light
notes: also called Ho Ab I332_14T
B16: GpH7-B3 variant H268_20W/GpL16-k0 (antibody, human IgG1, kappa)
heavy: not shown
light: B1 light
notes: also called Ho Ab H268_20W
B17: GpH7-B3 variant H268_01G/GpL16-k0 (antibody, human IgG1, kappa)
heavy: not shown
light: B1 light
notes: also called Ho Ab H268_01G
B18: GpH7-B3 variant H268_11K/GpL16-k0 (antibody, human IgG1, kappa)
heavy: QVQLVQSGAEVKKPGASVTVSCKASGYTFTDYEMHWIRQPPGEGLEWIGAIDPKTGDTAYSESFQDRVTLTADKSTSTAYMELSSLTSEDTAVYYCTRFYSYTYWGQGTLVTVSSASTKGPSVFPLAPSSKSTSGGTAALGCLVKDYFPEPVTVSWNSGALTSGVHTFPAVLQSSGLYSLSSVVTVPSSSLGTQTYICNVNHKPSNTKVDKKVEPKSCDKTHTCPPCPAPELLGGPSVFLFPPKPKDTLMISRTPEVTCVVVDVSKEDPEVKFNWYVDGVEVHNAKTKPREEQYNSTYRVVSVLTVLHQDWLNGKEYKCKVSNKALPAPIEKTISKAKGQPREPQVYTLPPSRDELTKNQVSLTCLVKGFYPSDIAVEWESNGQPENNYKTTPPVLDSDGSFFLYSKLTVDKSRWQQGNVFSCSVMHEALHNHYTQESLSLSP
light: B1 light
notes: also called Ho Ab H268_11K
B19: GpH7-B3 variant G237_13S/GpL16-k0 (antibody, human IgG1, kappa)
heavy: not shown
light: B1 light
notes: also called Ho Ab G237_13S
B20: GpH7-B3 variant K334_10E/GpL16-k0 (antibody, human IgG1, kappa)
heavy: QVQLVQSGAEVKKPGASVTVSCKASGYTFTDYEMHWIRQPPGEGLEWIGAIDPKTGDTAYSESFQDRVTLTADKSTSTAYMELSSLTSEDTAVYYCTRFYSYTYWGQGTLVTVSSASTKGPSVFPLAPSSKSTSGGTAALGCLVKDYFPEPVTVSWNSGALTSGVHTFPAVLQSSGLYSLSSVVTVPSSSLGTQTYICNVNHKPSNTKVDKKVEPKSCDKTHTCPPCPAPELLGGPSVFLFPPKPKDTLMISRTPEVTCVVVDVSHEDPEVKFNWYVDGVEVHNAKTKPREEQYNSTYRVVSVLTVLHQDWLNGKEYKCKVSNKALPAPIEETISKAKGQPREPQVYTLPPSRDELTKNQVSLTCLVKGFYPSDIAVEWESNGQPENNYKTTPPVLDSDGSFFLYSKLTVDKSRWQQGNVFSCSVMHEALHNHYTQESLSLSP
light: B1 light
notes: also called Ho Ab K334_10E
B21: GpH7-B3 variant K326_04F/GpL16-k0 (antibody, human IgG1, kappa)
heavy: not shown
light: B1 light
notes: also called Ho Ab K326_04F
B22: GpH7-B3 variant H268_05P/GpL16-k0 (antibody, human IgG1, kappa)
heavy: not shown
light: B1 light
notes: also called Ho Ab H268_05P
B23: GpH7-B3 variant H268_03V/GpL16-k0 (antibody, human IgG1, kappa)
heavy: not shown
light: B1 light
notes: also called Ho Ab H268_03V
B24: GpH7-B3 variant N325_13S/GpL16-k0 (antibody, human IgG1, kappa)
heavy: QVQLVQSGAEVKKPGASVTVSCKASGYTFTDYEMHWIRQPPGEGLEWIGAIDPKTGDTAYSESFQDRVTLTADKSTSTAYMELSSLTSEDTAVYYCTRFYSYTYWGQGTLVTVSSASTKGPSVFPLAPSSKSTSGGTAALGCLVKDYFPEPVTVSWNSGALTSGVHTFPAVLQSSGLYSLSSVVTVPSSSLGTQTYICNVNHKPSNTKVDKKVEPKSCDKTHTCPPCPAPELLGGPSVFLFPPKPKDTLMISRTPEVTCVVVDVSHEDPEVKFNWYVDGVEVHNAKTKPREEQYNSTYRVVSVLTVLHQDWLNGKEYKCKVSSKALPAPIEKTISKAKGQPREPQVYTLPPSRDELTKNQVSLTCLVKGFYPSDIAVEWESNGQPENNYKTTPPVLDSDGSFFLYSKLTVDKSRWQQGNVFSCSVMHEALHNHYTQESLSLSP
light: B1 light
notes: also called Ho Ab N325_13S
B25: GpH7-B3 variant L235_09D/GpL16-k0 (antibody, human IgG1, kappa)
heavy: not shown
light: B1 light
notes: also called Ho Ab L235_09D
B26: GpH7-B3 variant L328_13S/GpL16-k0 (antibody, human IgG1, kappa)
heavy: not shown
light: B1 light
notes: also called Ho Ab L328_13S
B27: GpH7-B3 variant K334_08L/GpL16-k0 (antibody, human IgG1, kappa)
heavy: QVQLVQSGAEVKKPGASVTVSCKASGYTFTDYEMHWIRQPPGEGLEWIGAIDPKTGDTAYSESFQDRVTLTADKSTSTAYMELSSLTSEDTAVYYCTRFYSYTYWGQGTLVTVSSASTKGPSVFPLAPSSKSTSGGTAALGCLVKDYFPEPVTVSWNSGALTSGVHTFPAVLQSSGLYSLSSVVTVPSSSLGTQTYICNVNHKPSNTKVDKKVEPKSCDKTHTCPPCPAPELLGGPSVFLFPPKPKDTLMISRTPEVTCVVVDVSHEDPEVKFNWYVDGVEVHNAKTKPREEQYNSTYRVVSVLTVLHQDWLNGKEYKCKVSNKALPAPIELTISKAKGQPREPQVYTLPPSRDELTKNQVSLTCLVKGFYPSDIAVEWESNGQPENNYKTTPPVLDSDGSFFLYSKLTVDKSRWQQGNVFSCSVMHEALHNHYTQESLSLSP
light: B1 light
notes: also called Ho Ab K334_08L
B28: GpH7-B3 variant L328_14T/GpL16-k0 (antibody, human IgG1, kappa)
heavy: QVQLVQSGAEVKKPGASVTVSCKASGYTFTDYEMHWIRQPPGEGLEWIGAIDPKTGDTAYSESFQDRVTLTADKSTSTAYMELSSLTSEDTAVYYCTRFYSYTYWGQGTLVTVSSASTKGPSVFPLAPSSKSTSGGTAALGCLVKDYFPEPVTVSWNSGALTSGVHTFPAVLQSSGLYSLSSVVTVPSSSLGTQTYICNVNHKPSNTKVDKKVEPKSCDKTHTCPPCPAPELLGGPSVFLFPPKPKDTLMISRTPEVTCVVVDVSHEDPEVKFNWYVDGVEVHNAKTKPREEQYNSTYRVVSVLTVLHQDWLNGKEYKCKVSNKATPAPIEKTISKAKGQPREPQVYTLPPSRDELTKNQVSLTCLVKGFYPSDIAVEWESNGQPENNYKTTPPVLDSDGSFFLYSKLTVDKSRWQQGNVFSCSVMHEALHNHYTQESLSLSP
light: B1 light
notes: also called Ho Ab L328_14T

Target: T1, FcγRIIa R
Assay: SPR (Biacore), captured antibody, FcγR as analyte; relative binding activity
Protocol: Analysis of interaction between objective antibody and the FcγR was carried out using Biacore T100 (GE Healthcare). HBS-EP+ (GE Healthcare) was used as the running buffer, and the measurement temperature was set to 25° C. Chips produced by immobilizing the antigen peptide by the amine coupling method to a Series S Sencor Chip CM5 (GE Healthcare), or alternatively, chips produced by allowing preliminarily biotinylated antigen peptides to interact with and immobilize onto a Series S Sensor Chip SA (certified) (GE Healthcare) were used. Antibodies of interest were captured onto an antigen peptide-immobilized chip, and allowed to interact to each FcγR diluted with running buffer. To regenerate and repeatedly use the chip, the antibodies captured on the chip were washed off by reacting 10 mM glycine-HCl, pH 1.5.

Row | Binder | Ho/Con_2aR
1 | B1 | 73.1 % (GpH7-B3/GpL16-k0 = 100)
2 | B2 | 114 % (GpH7-B3/GpL16-k0 = 100)
3 | B3 | 111 % (GpH7-B3/GpL16-k0 = 100)
4 | B4 | 133 % (GpH7-B3/GpL16-k0 = 100)
5 | B5 | 74.8 % (GpH7-B3/GpL16-k0 = 100)
6 | B6 | 131 % (GpH7-B3/GpL16-k0 = 100)
7 | B7 | 97 % (GpH7-B3/GpL16-k0 = 100)
8 | B8 | 95 % (GpH7-B3/GpL16-k0 = 100)
9 | B9 | 106 % (GpH7-B3/GpL16-k0 = 100)
10 | B10 | 77 % (GpH7-B3/GpL16-k0 = 100)
11 | B11 | 113 % (GpH7-B3/GpL16-k0 = 100)
12 | B12 | 102 % (GpH7-B3/GpL16-k0 = 100)
13 | B13 | 95.7 % (GpH7-B3/GpL16-k0 = 100)
14 | B14 | 108 % (GpH7-B3/GpL16-k0 = 100)
15 | B15 | 99.6 % (GpH7-B3/GpL16-k0 = 100)
16 | B16 | 110 % (GpH7-B3/GpL16-k0 = 100)
17 | B17 | 122 % (GpH7-B3/GpL16-k0 = 100)
18 | B18 | 93.4 % (GpH7-B3/GpL16-k0 = 100)
19 | B19 | 44.4 % (GpH7-B3/GpL16-k0 = 100)
20 | B20 | 106 % (GpH7-B3/GpL16-k0 = 100)
21 | B21 | 133 % (GpH7-B3/GpL16-k0 = 100)
22 | B22 | 95.9 % (GpH7-B3/GpL16-k0 = 100)
23 | B23 | 105 % (GpH7-B3/GpL16-k0 = 100)
24 | B24 | 126 % (GpH7-B3/GpL16-k0 = 100)
25 | B25 | 73 % (GpH7-B3/GpL16-k0 = 100)
26 | B26 | 108 % (GpH7-B3/GpL16-k0 = 100)
27 | B27 | 105 % (GpH7-B3/GpL16-k0 = 100)
28 | B28 | 118 % (GpH7-B3/GpL16-k0 = 100)
